From patent US20240409638A1 (AVACTA LIFE SCIENCES, published 2024)

Key:
[1] = target: T1, human PD-L1-Fc (R&D Systems) (human, UniProt Q9NZQ7 19-239); assay: huPD-L1-Fc binding ELISA
T1 construct: Bought reagent; also called huPD-L1-Fc; huPD-L1; not shown: Fc part of the bought fusion

[2] = target: T2, PD-L1 on cells (NCI-H441 cells; aAPC PD-L1/CHO-K1 cells, Promega) (human, UniProt Q9NZQ7 19-290); assay: cell-based or functional assay
[3] = target: T1, human PD-L1-Fc (R&D Systems); assay: human PD-L1-Fc binding ELISA: huPD-L1-Fc coated, anti-cystatin A detection
[4] = target: T1, human PD-L1-Fc (R&D Systems); assay: SPR (Biacore 8K): human PD-L1-Fc amine-coupled on a CM5 chip, AFFIMER as analyte, 1:1 Langmuir fit
[5] = target: T3, human serum albumin (HSA) (human, UniProt P02768 25-609); assay: HSA binding ELISA: HSA coated, bound AFFIMER detected with biotinylated anti-cystatin A antibody and streptavidin-HRP
T3 construct: The assays used bought HSA (Sigma #A37812 in the SPR work); also called HuSA
Procedure: Plates were washed and AFFIMER® polypeptides were detected using streptavidin-HRP for 30 min. After the last washing step, the TMB substrate was added for the development of the experiment and plates were read at 450 nm. The EC₅₀ was then calculated using the interpolated non-linear four-parameters standard curve.

[6] = target: T1, human PD-L1-Fc (R&D Systems); assay: PD-L1/PD-1 competition ELISA (binding inhibition %): human PD-1-Fc coated, AFFIMER preincubated with huPD-L1-Fc at its EC80, bound PD-L1 detected; blocked ligand: human PD-1-Fc. The table column is headed 'EC50 (nM)'; the text calls the values IC50
Procedure: Plates were washed two times with washing buffer (PBS, Tween 20 0.1%) with a plate washer and saturated with Casein 5% (Sigma) in PBS for 90 minutes at room temperature (25±1° C.). […] Plates were washed 3 times as described previously. […] Plates were washed 3 times as described previously and Streptavidin-HRP was added, and the plates were incubated for 30 minutes at room temperature (25±1° C.). Plates were washed a last time and the substrate (TMB; Pierce Thermo-Scientific) was added to the plate. After 10 minutes, the reaction was stopped using an acidic solution and the plates were read at absorbance 450-630 nm. The IC₅₀ was then calculated using the interpolated non-linear four-parameters standard curve.

[7] = target: T2, PD-L1 on cells (NCI-H441 cells; aAPC …); assay: cell-based or functional assay; remark: listed apart in the source
[8] = target: T3, human serum albumin (HSA); assay: SPR, Biacore, HSA amine-coupled on CM5; mammalian-produced format
Procedure: (§1) For the HSA binding kinetic analysis, HSA (Sigma #A37812) was immobilized on a CM5 chip surface using amine coupling in 10 mM sodium acetate (pH 5.0) (Cytvia). […] The chip surface was regenerated with 3 mM NaOH for 20 seconds at a flow rate of 20 μl/min. The kinetic data was blank subtracted and fit to a 1:1 Langmuir binding model (BIAcore evaluation software; Cytiva).

[9] = target: T4, murine serum albumin (MSA) (murine, UniProt P07724 25-608); assay: SPR, Biacore, MSA amine-coupled on CM5; mammalian-produced format
T4 construct: Bought reagent

[10] = target: T3, human serum albumin (HSA); assay: HSA binding ELISA: HSA coated, anti-cystatin A detection
[11] = target: T1, human PD-L1-Fc (R&D Systems); assay: SPR (Biacore 8K): human PD-L1-Fc amine-coupled on a CM5 chip, AFFIMER as analyte
[12] = target: T3, human serum albumin (HSA); assay: SPR (Biacore): immobilized ligand HSA (Sigma # A3782), AFFIMER as analyte, pH 7.0 by the legend
Procedure: as §1

[13] = target: T4, murine serum albumin (MSA); assay: SPR (Biacore): immobilized ligand MSA (Sigma # A3559), AFFIMER as analyte, pH 7.0 by the legend
[14] = target: T3, human serum albumin (HSA); assay: SPR, Biacore, HSA on CM5, pH 7.4; HSA-18 monomer
Procedure: as §1
(§2) Protein was produced from Escherichia coli and characterized as described in Example 1. […] Kinetic analysis was carried out as described in Example 2.

[15] = target: T3, human serum albumin (HSA); assay: SPR (Biacore) kinetics: HSA immobilised on a CM5 chip, AFFIMER as analyte, pH 7.4
Procedure: as §1, §2

[16] = target: T3, human serum albumin (HSA); assay: SPR, Biacore, HSA on CM5, pH 7.4; ILF XT format
Procedure: as §1, §2

[17] = target: T1, human PD-L1-Fc (R&D Systems); assay: SPR (Biacore) kinetics: human PD-L1-Fc immobilised on a CM5 chip, AFFIMER as analyte
[18] = target: T1, human PD-L1-Fc (R&D Systems); assay: SPR (Biacore) kinetics: human PD-L1-Fc immobilised on a CM5 chip, AFFIMER as analyte (column KD (pM), the same fit as the KD (M) column)

T3 sequence (P02768 25-609): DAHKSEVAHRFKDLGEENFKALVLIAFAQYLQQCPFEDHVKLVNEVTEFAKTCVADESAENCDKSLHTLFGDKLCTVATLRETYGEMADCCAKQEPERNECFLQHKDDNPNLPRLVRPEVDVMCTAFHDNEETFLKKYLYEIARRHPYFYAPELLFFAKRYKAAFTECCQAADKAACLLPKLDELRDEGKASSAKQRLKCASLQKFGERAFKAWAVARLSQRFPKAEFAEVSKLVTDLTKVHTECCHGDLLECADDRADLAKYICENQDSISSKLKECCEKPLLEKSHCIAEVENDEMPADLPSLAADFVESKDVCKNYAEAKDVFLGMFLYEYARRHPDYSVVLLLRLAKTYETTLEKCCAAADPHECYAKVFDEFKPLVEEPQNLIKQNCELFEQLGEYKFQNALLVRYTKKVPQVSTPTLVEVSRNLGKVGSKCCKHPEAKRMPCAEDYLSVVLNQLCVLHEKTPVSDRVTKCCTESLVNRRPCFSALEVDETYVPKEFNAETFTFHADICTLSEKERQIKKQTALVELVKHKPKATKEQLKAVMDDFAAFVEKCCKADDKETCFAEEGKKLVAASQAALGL
T1 sequence (Q9NZQ7 19-239 limits assumed): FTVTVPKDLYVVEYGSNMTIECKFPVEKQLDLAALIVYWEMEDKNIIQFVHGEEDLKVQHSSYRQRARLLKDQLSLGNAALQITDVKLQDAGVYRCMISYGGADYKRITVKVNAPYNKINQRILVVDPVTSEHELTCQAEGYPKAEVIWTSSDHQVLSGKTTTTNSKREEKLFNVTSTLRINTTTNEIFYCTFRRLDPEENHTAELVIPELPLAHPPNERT
T2 sequence (Q9NZQ7 19-290): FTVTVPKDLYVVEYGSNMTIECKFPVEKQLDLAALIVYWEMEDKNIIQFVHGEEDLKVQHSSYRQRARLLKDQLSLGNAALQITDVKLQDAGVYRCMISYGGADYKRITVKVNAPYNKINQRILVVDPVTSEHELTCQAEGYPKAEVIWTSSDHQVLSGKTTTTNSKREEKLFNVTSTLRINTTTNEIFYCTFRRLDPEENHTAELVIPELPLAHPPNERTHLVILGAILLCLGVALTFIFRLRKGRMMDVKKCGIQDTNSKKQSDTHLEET

B1: Clone 80 (monomeric anti-PD-L1 AFFIMER® polypeptide) (designed binder)
chain: MIPGGLSEAKPATPEIQEIVDKVKPQLEEKTGETYGKLEAVQYKTQVVRRKHFPQWPGTNYYIKVRAGDNKYMHLKVFKSLDLQPREVFQEDLVLTGYQVDKNKDDELTGF
notes: Engineered Stefin A variant; also called anti-PD-L1 type I AFFIMER® polypeptide
For B1, the EC50 [1] was 0.2 nM, the “half-maximal concentration of PD-1/PD-L1 blockade (% of inhibition, NFAT-luciferase reporter cells; IC50)” value [2] was 27.9 nM and the EC50 [3] was 0.21 nM. For the same binder, the Kd [4] was 0.449 nM, the binding result [5] was “no binding” and the IC50 [6] was 1.63 nM.

B2: Clone 80 XT38 (mammalian-produced anti-PD-L1 AFFIMER® ILF dimer XT) (designed binder)
chain: MIPGGLSEAKPATPEIQEIVDKVKPQLEEKTGETYGKLEAVQYKTQVVRRKHFPQWPGTNYYIKVRAGDNKYMHLKVFKSLDLQPREVFQEDLVLTGYQVDKNKDDELTGFAEAAAKEAAAKEAAAKEAAAKEAAAKEAAAKMIPGGLSEAKPATPEIQEIVDKVKPQLEEKTGETYGKLEAVQYKTQVVRRKHFPQWPGTNYYIKVRAGDNKYMHLKVFKSLDLQPREVFQEDLVLTGYQVDKNKDDELTGFAEAAAKEAAAKEAAAKEAAAKEAAAKEAAAKMIPRGLSEAKPATPEIQEIVDKVKPQLEEKTNETYGKLEAVQYKTQVLANFFQRRWPGSTNYYIKVRAGDNKYMHLKVFNGPWKFRNTDRGADRVLTGYQVDKNKDDELTGF
notes: Same trimeric ILF format as Clone 80 XT35, expressed in HEK (Expi293F) cells
B2 was tested, and the “IC50 of PD-1/PD-L1 blockade (% of inhibition, Promega NFAT-luciferase reporter cells)” value [7] was 57.9 nM, the Kd [8] was 15.5 nM and the Kd [9] was 413 nM. It also gave an EC50 [10] of 2.78 nM, an EC50 [3] of 0.02 nM and a Kd [11] of 0.0864 nM. The koff [11] was 8.41e-05 s⁻¹, the kon [11] was 974000 M⁻¹ s⁻¹ and the koff [12] was 0.00641 s⁻¹. The kon [12] was 412000 M⁻¹ s⁻¹, the koff [13] was 0.0741 s⁻¹ and the kon [13] was 179000 M⁻¹ s⁻¹.

B3: HSA-18 (anti-serum albumin AFFIMER® polypeptide, XT monomer) (designed binder)
chain: MIPRGLSEAKPATPEIQEIVDKVKPQLEEKTNETYGKLEAVQYKTQVLADWWQAKWPHSTNYYIKVRAGDNKYMHLKVFNGPYKVHQSSGGADRVLTGYQVDKNKDDELTGF
notes: also called HSA-18 monomer
B3 gave a Kd [14] of 1.09 nM, a Kd [15] of 109 nM and a koff [15] of 0.0078 s⁻¹. It also gave a kon [15] of 71400 M⁻¹ s⁻¹.

B4: Clone 80 XT62 (designed binder)
chain: MIPGGLSEAKPATPEIQEIVDKVKPQLEEKTGETYGKLEAVQYKTQVVRRKHFPQWPGTNYYIKVRAGDNKYMHLKVFKSLDLQPREVFQEDLVLTGYQVDKNKDDELTGFAEAAAKEAAAKEAAAKEAAAKEAAAKEAAAKMIPGGLSEAKPATPEIQEIVDKVKPQLEEKTGETYGKLEAVQYKTQVVRRKHFPQWPGTNYYIKVRAGDNKYMHLKVFKSLDLQPREVFQEDLVLTGYQVDKNKDDELTGFAEAAAKEAAAKEAAAKEAAAKEAAAKEAAAKMIPRGLSEAKPATPEIQEIVDKVKPQLEEKTNETYGKLEAVQYKTQVLADWWQAKWPHSTNYYIKVRAGDNKYMHLKVFNGPYKVHQSSGGADRVLTGYQVDKNKDDELTGF
notes: Clone 80 dimer with HSA-18 at the C-terminus; Made in E. coli; No tag is stated for this construct
B4 showed a Kd [16] of 7.04 nM, a Kd [15] of 704 nM and a koff [15] of 0.00828 s⁻¹. The kon [15] was 11800 M⁻¹ s⁻¹, the Kd [17] was 0.109 nM and the koff [17] was 0.00015 s⁻¹. For the same binder, the kon [17] was 1.37e+06 M⁻¹ s⁻¹ and the Kd [18] was 0.11 nM.
